Experimental data reported in paper PMC10798635.

Key:
Conditions in all cases: room temperature 30-45 min, BLI: 20 mM Tris-HCl pH 7.4, 80 mM NaCl, 20 mM KCl, 1 mM DTT
[1] = system: Hantavirus nucleocapsid protein (NP), wild type (Sin Nombre virus); assay: filter binding
[2] = system: Hantavirus nucleocapsid protein (NP), wild type (Sin Nombre virus); assay: filter binding; remark: listed apart in the source
[3] = system: Hantavirus nucleocapsid protein (NP), wild type (Sin Nombre virus); assay: BLI
[4] = system: Hantavirus nucleocapsid protein (NP), wild type (Sin Nombre virus); assay: filter binding; remark: listed apart in the source
[5] = system: Hantavirus nucleocapsid protein (NP), wild type (Sin Nombre virus); assay: filter binding; remark: listed apart in the source

Substance	Kd [1] [nM]	Kd [2] [nM]	Kd [3] [nM]	Kd [4] [nM]	Kd [5] [nM]
Mutant 4 (wild type UTR lacking nt 530-542)	3900	1400	–	–	–
VCP mRNA 5' UTR wild type	47	–	25	–	–
Mutant 3 (mutant 1 lacking nt 530-542)	2400	–	–	2400	–
Mutant 2 (VCP 5' UTR nt 542-988)	1900	–	–	–	1600
Mutant 1 (VCP 5' UTR nt 1-542)	42.2	–	–	–	–
